A short description of the data set: label from the status in PepcDB records.
As for “MSLTLLKGRRKVDTIKVGILGYGLSGSVFHGPLLDVLDEYQISKIMTSRTEEVKRDFPDAEVVHELEEITNDPAIELVIVTTPSGLHYEHTMACIQAGKHVVMEKPMTATAEEGETLKRAADEKGVLLSVYHNRRWDNDFLTIKKLISEGSLEDINTYQVSYNRYRPEVQARWREKEGTATGTLYDLGSHIIDQTLHLFGMPKAVTANVMAQRENAETVDYFHLTLDYGKLQAILYGGSIVPANGPRYQIHGKDSSFIKYGIDGQEDALRAGRKPEDDSWGADVPEFYGKLTTIRGSDKKTETIPSVNGSYLTYYRKIAESIREGAALPVTAEEGINVIRIIEAAMESSKEKRTIMLEHEGHHHHHH”, the protein production entry is given as “not failed”.
As for “MAQRKNAKSSGNSSSSGSGSGSTSAGSSSPGARRETKHGGHKNGRKGGLSGTSFFTWFMVIALLGVWTSVAVVWFDLVDYEEVLGKLGIYDADGDGDFDVDDAKVLLGLKERSTSEPAVPPEEAEPHTEPEEQVPVEAEPQNIEDEAKEQIQSLLHEMVHAEHVEGEDLQQEDGPTGEPQQEDDEFLMATDVDDRFETLEPEVSHEETEHSYHVEETVSQDCNQDMEEMMSEQENPDSSEPVVEDERLHHDTDDVTYQVYEEQAVYEPLENEGIEITEVTAPPEDNPVEDSQVIVEEVSIFPVEEQQEVPPETNRKTDDPEQKAKVKKKKPKLLNKFDKTIKAELDAAEKLRKRGKIEEAVNAFKELVRKYPQSPRARYGKAQCEDDLAEKRRSNEVLRGAIETYQEVASLPDVPADLLKLSLKRRSDRQQFLGHMRGSLLTLQRLVQLFPNDTSLKNDLGVGYLLIGDNDNAKKVYEEVLSVTPNDGFAKVHYGFILKAQNKIAESIPYLKEGIESGDPGTDDGRFYFHLGDAMQRVGNKEAYKWYELGHKRGHFASVWQRSLYNVNGLKAQPWWTPKETGYTELVKSLERNWKLIRDEGLAVMDKAKGLFLPEDENLREKGDWSQFTLWQQGRRNENACKGAPKTCTLLEKFPETTGCRRGQIKYSIMHPGTHVWPHTGPTNCRLRMHLGLVIPKEGCKIRCANETRTWEEGKVLIFDDSFEHEVWQDASSFRLIFIVDVWHPELTPQQRRSLPAI”, the entry is “failed”.
As for “PGAPSTVRISKNVDGIHLSWEPPTSPSGNILEYSAYLAIRTAQMQDNPSQLVFMRIYCGLKTSCTVTAGQLANAHIDYTSRPAIVFRISAKNEKGYGPATQIRWLQGNSK”, the protein production entry was “not failed”.
As for “MDYFRSPDGPMFMIICGEGPCSGIANDYINESLNKKLNISSGGSDNPWFFFGISYSGALSAWFRLKFPHLTCGSLASSAVVRAIYEFSEFDQQIGESAGQECKLALQETNKLLELGLKVKNKAVKSLFNATELDVDADFLYLTADAAVMAFQYGNPDKLCVPLVEAKKNGSDLVVTYSTYVREYCMRIWGLRVRTYNRKHLRNTVVTADSAYRLWWFQACTELGYFQVAPKYDSVRSHQINTTFHLDLCKSLFGKDVYPKVDATNLYYGGDRLAATKIIFTNGSEDPWRHASKQNSTHEMPSYIIKCRNCGHGSDIRGCPQSPMVIEGKSNNCSLPDYVNKVRQQMVEHIDLWLSECRQSIRSSI”, the entry is “not failed”.
As for “MEISFTRVALLAAALFFVGCDQKPQPAKTHATEVTVLEGKTMGTFWRASIPGIDAKRSAELKEKIQTQLDADDQLLSTYKKDSALMRFNDSQSLSPWPVSEAMADIVTTSLRIGAKTDGAMDITVGPLVNLWGFGPEQQPVQIPSQEQIDAMKAKTGLQHLTVINQSHQQYLQKDLPDLYVDLSTVGEGYAADHLARLMEQEGISRYLVSVGGALNSRGMNGEGLPWRVAIQKPTDKENAVQAVVDINGHGISTSGSYRNYYELDGKRLSHVIDPQTGRPIEHNLVSVTVIAPTALEADAWDTGLMVLGPEKAKEVVRREGLAVYMITKEGDSFKTWMSPQFKSFLVSEKN”, the entry is “not failed”.
As for “MTGQELRQLLLDKWGYSYDVQFRRTQGKIFLQVMWKYLEQASFPMNETEYQEHLDSVANYLHALGGAVQVKTFITQTKERPRLGKAVSIPLDLGERASEWIILEHHHHHH”, the entry is “not failed”; as for “MGFLQPRLPDIDLAEWSQGSRSQKIRPMAQHWAEVGFGTPVLLHLFYVAKILLYVLVGWLIVLTTKGIDGFTDAAAWYAEPIVFEKVVLYTMLFEVIGLGCGFGPLNNRFFPPMGSILYWMRFGTIRLPPWPDRVPWTRGTKRKPVDVALYALLVMMLLSALFTDGAGPIPELGTTVGLLPAWQIVLILLLLGVLGLRDKVIFLAARGEVYATLTVTFLFGRLNGIDMIVAAKLVFLVIWIGAATSKLNRHFPFVISTMMSNNPLFRPRFIKRMFFKKFPGDLRPGLLSRIVAHVSTVIEMCVPVVLFVAHGGWPTVVAATIMVCFHLGILTAIPMGVPLEWNVFMIFGVLSLFVGHACLGLADVKNPVPLAILIAVVAGIVIAGNVFPRKISFLAAMRYYAGNWDTTLWCIKPSAEDKINRGIVAIASMPAAQLERFYGKDRAQIPMYLGYAFRAMNSHGRALFTLAHRAMAGHDEDDYVITDGERVCSTAVGWNFGDGHLHNEQLIAAMQQRCGFQPGEVRVVLLDAQPIHRQTQEYRLVDAATGEFERGYVRVADMVNRQPWDDDVPVHVLPG”, “failed”; as for “MSMECVVQGIIETQHVEALEILLQGLCGVQRERLRVHELCLRSGPNLGVVSSEVRLLCDLDQPEPTWTVKHVGGAMRGAGADQISVLVRNMIESKVSKNALRMFYALGYKLDHELLKVGFAFHFQRTAHISVSVSSVNKMPKVHAIDEAVPVTPGMQIVDVTAPATSENYSEVAAAVSSFCEFLAPLVHLSKPSISTGVVPTAAAAAASLMSDGGGTTL”, “failed”.
Consider “MLTSFKLHSLKPYTLKSSMILEIITYILCFFSMIIAFVDNTFSIKIYNITAIVCLLSLILRGRQENYNIKNLILPLSIFLIGLLDLIWYSAFKVDNSPFRATYHSYLNTAKIFIFGSFIVFLTLTSQLKSKKESVLYTLYSLSFLIAGYAMYINSIHENDRISFGVGTATGAAYSTMLIGIVSGVAILYTKKNHPFLFLLNSCAVLYVLALTQTRATLLLFPIICVAALIAYYNKSPKKFTSSIVLLIAILASIVIIFNKPIQNRYNEALNDLNSYTNANSVTSLGARLAMYEIGLNIFIKSPFSFRSAESRAESMNLLVAEHNRLRGALEFSNVHLHNEIIEAGSLKGLMGIFSTLFLYFSLFYIAYKKRALGLLILTLGIVGIGLSDVIIWARSIPIIIISAIVLLLVINNRNNTIN”, for which the protein production entry is on record as “failed”.
As for “APIPERAQVSVPGPVRVVDFDTPQSVALFVQPGIDRDDPDFFTAYILNHIIGGGGFESRLMQEVREKRGLTYGVYSYLLPKDLASIYMGSVASANDKIAEAVNVIRDVWRDVAANGVTAKELEDAKTYLTGAYPLRFDGNGRIANILAGMQIQGLPIDYIATRNDQVNAVTLEEINTFAAGFLDPEGLSFTVVGKPVGL”, the entry is “failed”; as for “MASLISFWLFFALSLLQPQQRQFLASKPWQDWLLDGVSLGIQGAIIPLLQLLLVINFYSLIIPHWQHSFNLFAGGQFLLGFVAIDYVYYWSHRALHSKLLFPIHQVHHTVSQMDMVSCARNTFWSSLFLPYVWLNSLIIYLLHDARGYILAISCTYLLDLWRHSSLIINKKCWLHDCLNSWLILPQDHGLHHHQIGKGNFGANLKLWDKIHGTYLKNTLPNQLSISSGMGIKLELTLWQKLFWPLT”, “failed”; as for “MKKSLTLVLVVVSILIFSQTFKLEKVLGFSDISSLAFKDGYLLLGTGNGEIIVYKDGSYYRAFKVHDNRVNEVTFENGFIVSASDDKTVGVTNLETGEIKLLKGHMKGVSSVAVAGSKILSASFDGTVRVWSFPDGGEISSQKLGPSVVQIAAHENRYVVGLANGLALIRDLSNQSFSIPLKAHPEGIKKIVFSENGQLIATCGGNTVKVWNASNGNLVLQYDHVITVNDVAFLENDSLIFVADDYKAVVLNIQKNEVVKSIDAHNNFVLFVSSDDGSIATYGMDKTVKVWNANLELQYSLYGHQLSVNTVALSSDRKFIVSGSDDREILIWNTEKGIAEHRIKALSGVRKLLTVENNIISCLDSNQLKIYNLENGKLVKRIKVGTTSTMDIALQNDRMAVGFYDGSVALFRYPSFEEIWRKDTEHEMIQTIDMNNKFIAFGVSYSDPKDKIGYVEVLSADTGERVFLLEGHRGNVNAVKFAGDFLVSGGEDGKVILWNLDTGSKVKEIYLNEPVSSLFVDEKELFVGTWNGSIKIFAFPDLTLKTSLKASDQKIGHLIKVGNHLVVPCGDGKIRILVEK”, “failed”.

(Values after a protein production outcome set (Wang et al. 2014).)
